Assay results reported in patent US20230235027A1 (US Dept. of Health and Human Services, published 2023).
Where “and” joins values, the source holds several entries; their conditions need not be identical. Identical values can stand only once.

Tests used:
[1] = molecular target: T1, SARS-CoV-2 RBD mutant N354D/D364Y (SARS-CoV-2, UniProt P0DTC2 319-541); experiment: direct binding to RBD variant (FIG. 7B); format not described further
T1 construct: bought variant RBD; also called SPD-S52H3, ACRO Biosystems

[2] = molecular target: T2, SARS-CoV-2 RBD mutant W436R (SARS-CoV-2, UniProt P0DTC2 319-541); experiment: as above
T2 construct: bought variant RBD; also called #SPD-552H7, ACRO Biosystems

[3] = molecular target: T3, SARS-CoV-2 RBD mutant V367F (SARS-CoV-2, UniProt P0DTC2 319-541); experiment: as above
T3 construct: bought variant RBD; also called SPD-S52H4, ACRO Biosystems

[4] = molecular target: T1, SARS-CoV-2 RBD mutant N354D/D364Y; experiment: competition ELISA, RBD variant coated, competitor biotinylated ACE2
[5] = molecular target: T2, SARS-CoV-2 RBD mutant W436R; experiment: as above
[6] = molecular target: T3, SARS-CoV-2 RBD mutant V367F; experiment: as above

B1: NIH-CoVnb-112 (VHH)
VHH: DVQLQESGGGLVQPGGSLRLSCAASGLTLDYYAIGWFRQAPGKEREGVSCISSSDGSTYYADSVKGRFTTSRDNAKNTVYLQMNSLKPEDTAVYYCAAVPSTYYSGTYYYTCHPGGMDYWGKGTQVTVSS
EC50 [1]: ~0.01 µg/mL | EC50 [2]: ~0.01 µg/mL | EC50 [3]: ~0.01 µg/mL | EC50 [4]: ~1.11 nM and ~0.02 µg/mL | EC50 [5]: ~0.02 µg/mL and ~1.11 nM | EC50 [6]: ~0.02 µg/mL and ~1.11 nM
